The Kd is a measure of binding affinity in units of concentration.

Experiment [1] addresses human TREM-1 (hTREM-1) protein (human) (UniProt Q9NP99). The experiment is described as follows: SPR, mAb captured by anti-Fc, hTREM-1 as analyte (Example 11). (SPR reads the build-up and loss of mass on a sensor chip optically.)
In experiment [2] the target is cynomolgus TREM-1 (cTREM-1) protein (cynomolgus monkey). The experiment is described as follows: SPR, mAb captured by anti-Fc, cTREM-1 as analyte (Example 11).
Experiment [3] addresses T1, full length cynomolgus monkey (c)TREM-1 on cells (cynomolgus monkey).
T1 sequence: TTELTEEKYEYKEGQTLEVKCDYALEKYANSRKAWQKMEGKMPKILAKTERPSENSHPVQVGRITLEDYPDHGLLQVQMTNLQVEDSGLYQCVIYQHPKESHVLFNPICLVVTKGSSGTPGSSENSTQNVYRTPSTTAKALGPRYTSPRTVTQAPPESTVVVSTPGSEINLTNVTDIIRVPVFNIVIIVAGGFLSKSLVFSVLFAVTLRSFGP
In words: cell-based or functional assay.

Experiment [4] deals with human TREM-1 on cells (human) (UniProt Q9NP99). The experiment is described as follows: cell-based or functional assay.
Chain of human TREM-1 on cells (human) (Q9NP99 21-234 limits assumed): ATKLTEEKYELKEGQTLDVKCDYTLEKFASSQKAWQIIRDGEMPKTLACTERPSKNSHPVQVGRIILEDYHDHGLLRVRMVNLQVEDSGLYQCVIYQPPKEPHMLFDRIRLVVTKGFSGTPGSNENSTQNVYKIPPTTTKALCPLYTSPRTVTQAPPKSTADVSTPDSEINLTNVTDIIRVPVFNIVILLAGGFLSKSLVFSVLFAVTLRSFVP

Chain of recombinant human PGLYRP1 expressed from E. coli and refolded (O75594 22-196 limits assumed): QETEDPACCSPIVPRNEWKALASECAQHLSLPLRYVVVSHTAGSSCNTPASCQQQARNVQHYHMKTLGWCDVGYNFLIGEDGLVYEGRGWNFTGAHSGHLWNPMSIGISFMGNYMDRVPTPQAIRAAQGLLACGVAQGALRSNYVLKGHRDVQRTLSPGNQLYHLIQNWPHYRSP
Chain of human TREM-1 (hTREM-1) protein (human) (Q9NP99 21-200 limits assumed): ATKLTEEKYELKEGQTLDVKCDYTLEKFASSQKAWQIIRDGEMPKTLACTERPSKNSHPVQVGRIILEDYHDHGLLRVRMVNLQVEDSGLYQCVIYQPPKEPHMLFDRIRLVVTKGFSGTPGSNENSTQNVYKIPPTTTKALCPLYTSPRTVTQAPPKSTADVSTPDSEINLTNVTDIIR

clone TREM-26 (Biolegend) (antibody) returned an equilibrium dissociation constant (Kd) in experiment [1] of 0.9 nM. In experiment [2], this substance had an equilibrium dissociation constant (Kd) of 4 nM. Also, in experiment [3], the % remaining cyno TREM-1 activity at 0.74 ug/ml, reporter cell came out at 104% and the % remaining cyno TREM-1 activity at 20 ug/ml, reporter cell is 87.7%. Further, in experiment [4], the % remaining activity at 0.003 µg/ml, BWZ/hTREM-1 reporter amounted to 100%; the % remaining activity at 0.03 µg/ml, BWZ/hTREM-1 reporter amounted to 124%; the % remaining activity at 0.3 µg/ml, BWZ/hTREM-1 reporter worked out at 108%; the Luminescence, BWZ/hTREM-1 reporter cell + activated neutrophils (8.8 x 10E6 without antibody) is 9.9e+06 luminescence. The substance also came in with a normalised reporter signal, PGN-activated neutrophils (normalised signal) in experiment [4] above 1.
Consider “type II PGLYRP1 on transiently transfected HEK cells (ligand)”, for which, in experiment [4], the TNF-a release, RA synovial tissue cells + IgG4 + 1 x 10^3 Type II cells is 57.9 pg/mL; the TNF-a release, RA synovial tissue cells + IgG4 + 1 x 10^4 Type II cells was 95 pg/mL; the TNF-a release, RA synovial tissue cells + IgG4 + 1 x 10^5 Type II cells stood at 121 pg/mL; the TNF-a release, RA synovial tissue cells + IgG4 + 3 x 10^3 Type II cells was determined as 54.6 pg/mL. For the same substance, in experiment [4], the TNF-a release, RA synovial tissue cells + IgG4 + 3 x 10^4 Type II cells came out at 114 pg/mL.
“HM2252 (clone 6B1, Hycult Biotech) (antibody)”: the dissociation constant (Kd) in experiment [1] was 3 nM. In experiment [4], the % remaining activity at 0.003 µg/ml, BWZ/hTREM-1 reporter stood at 96%; the % remaining activity at 0.03 µg/ml, BWZ/hTREM-1 reporter is 122%; the % remaining activity at 0.3 µg/ml, BWZ/hTREM-1 reporter came out at 113%.
Turning to “MAB1278 (R&D Systems, cat. no. MAB1278) (antibody)”, the Kd in experiment [1] worked out at 8 nM. In experiment [4], this substance returned a BWZ/hTREM-1 reporter signal, RA synovial fluid, mAb at 0.1 ug/ml, assay 1 of 829000; a BWZ/hTREM-1 reporter signal, RA synovial fluid, mAb at 0.1 ug/ml, assay 2 of 691000; a BWZ/hTREM-1 reporter signal, RA synovial fluid, mAb at 1 ug/ml, assay 1 of 1.19e+06; a BWZ/hTREM-1 reporter signal, RA synovial fluid, mAb at 1 ug/ml, assay 2 of 1.02e+06. Moreover, in experiment [4], the BWZ/hTREM-1 reporter signal, RA synovial fluid, mAb at 10 ug/ml, assay 1 came out at 1.08e+06; the BWZ/hTREM-1 reporter signal, RA synovial fluid, mAb at 10 ug/ml, assay 2 was 1.05e+06; the IL-6, M2 macrophages on platebound mAb 2 µg/ml was 412 pg/mL; the IL-6, M2 macrophages on platebound mAb 6 µg/ml was 877 pg/mL. Besides, in experiment [4], the IL-6, M2 macrophages on platebound mAb 20 µg/ml amounted to 1350 pg/mL; the Luminescence, BWZ/hTREM-1 reporter cell + activated neutrophils (8.8 x 10E6 without antibody) is 1e+07 luminescence; the TNFa, M2 macrophages on platebound mAb 2 µg/ml came out at 2000 pg/mL; the TNFa, M2 macrophages on platebound mAb 6 µg/ml is 6450 pg/mL. In experiment [4], this substance yielded a TNFa, M2 macrophages on platebound mAb 20 µg/ml of 7750 pg/mL; a fold induction of the BWZ/hTREM-1 reporter signal by platebound antibody of 32 fold; an induction of NFAT-driven LacZ production, 1-10 µg/ml plate bound antibody against isotype control of 40 fold; a normalised reporter signal, PGN-activated neutrophils (normalised signal) above 1.
In experiment [1], “sc-80394 (clone 98Z12, Santa Cruz Biotechnology) (antibody)” showed a Kd of 30 nM. Further, in experiment [4], the % remaining activity at 0.003 µg/ml, BWZ/hTREM-1 reporter was 120%; the % remaining activity at 0.03 µg/ml, BWZ/hTREM-1 reporter is 134%; the % remaining activity at 0.3 µg/ml, BWZ/hTREM-1 reporter was 131%.
“clone TREM-37 (Biolegend, cat. no. 316102) (antibody)” came in with a dissociation constant (Kd) in experiment [1] of 0.8 nM. Also, in experiment [4], the % remaining activity at 0.003 µg/ml, BWZ/hTREM-1 reporter came out at 98%; the % remaining activity at 0.03 µg/ml, BWZ/hTREM-1 reporter worked out at 103%; the % remaining activity at 0.3 µg/ml, BWZ/hTREM-1 reporter is 90%; the Luminescence, BWZ/hTREM-1 reporter cell + activated neutrophils (8.8 x 10E6 without antibody) came out at 6.1e+06 luminescence. The substance also came in with a normalised reporter signal, PGN-activated neutrophils (normalised signal) in experiment [4] above 1.
For “SAB1405121 (clone 3F5, Sigma Aldrich) (antibody)”, in experiment [4], the % remaining activity at 0.003 µg/ml, BWZ/hTREM-1 reporter was found to be 104%; the % remaining activity at 0.03 µg/ml, BWZ/hTREM-1 reporter is 101%; the % remaining activity at 0.3 µg/ml, BWZ/hTREM-1 reporter worked out at 97%.
Consider “WH0054210M4 (clone 2E2, Sigma Aldrich) (antibody)”, for which the Kd in experiment [1] is 20 nM. In experiment [4], the % remaining activity at 0.003 µg/ml, BWZ/hTREM-1 reporter is 98%; the % remaining activity at 0.03 µg/ml, BWZ/hTREM-1 reporter stood at 104%; the % remaining activity at 0.3 µg/ml, BWZ/hTREM-1 reporter was determined as 86%.
With “recombinant human PGLYRP1 expressed from E. coli and refolded (from UniProt O75594 22-196) (ligand)”, in experiment [3], the TNF-α, cynomolgus M2 macrophages, PGN + PGRP-S, donor 1 is 295 pg/mL and the TNF-α, cynomolgus M2 macrophages, PGN + PGRP-S, donor 2 came to 307 pg/mL. Moreover, in experiment [4], the GM-CSF, RA synovial tissue cells, PGN + PGLYRP1 (PGN alone 182) was 616 pg/mL; the IL-1beta, RA synovial tissue cells, PGN + PGLYRP1 (PGN alone 2419) is 3770 pg/mL; the IL-6, RA synovial tissue cells, PGN + PGLYRP1 (PGN alone 2057) amounted to 4190 pg/mL; the IL-8, RA synovial tissue cells, PGN + PGLYRP1 (PGN alone 2575) is 5510 pg/mL. In addition, in experiment [4], the MCP-1, RA synovial tissue cells, PGN + PGLYRP1 (PGN alone 273) worked out at 471 pg/mL; the MIP-1beta, RA synovial tissue cells, PGN + PGLYRP1 (PGN alone 2458) turned out to be 4400 pg/mL; the TNFa, normoxic M2 macrophages, PGN-BS + PGLYRP1, donor 1 (PGN-BS alone 427) was 728 pg/mL; the TNFa, normoxic M2 macrophages, PGN-BS + PGLYRP1, donor 2 (PGN-BS alone 381) was 771 pg/mL. Further, the TNFalpha, RA synovial tissue cells, PGN + PGLYRP1 (PGN alone 624) in experiment [4] was found to be 1440 pg/mL.

For the origin of these results see US20170190775A1.
